Assay results published in PMC11150925.

substrate: [H][C@]12C[C@]([H])(OO1)[C@H](C/C=C\CCCC(=O)O)[C@H]2/C=C/[C@@H](O)CCCCC; assay: purified protein; conditions: PGD2 synthase reaction; 2 mM GSH fixed (saturating); PGH2 0.08-40 μM

Protein	Km [µM]	kcat [s⁻¹]	kcat/Km [M⁻¹ s⁻¹]
rCsGST-σ1 (Clonorchis sinensis) (protein) MADEHYTLFYFQFRGRAEAIRMILHANGVHFKDERFTMNEWPERRNQIPGSRVPLLQVKKNKTHEVANYVESMAIARMLAKRFHMMGDSEEEYYRVERMIGQCADLDKEFYTAFFAAADQKEEMLKKSMREAVPKMLDLISKSISESGGKFAAGDKVTLGDICLLTSMDHVRKHDPEFLGKHYPKLLVLEQEVLKAKPKLAEYIRTRPETPL	92.1	451	4.9e+06
rCsGST-σ3 (Clonorchis sinensis) (protein) MSGEKYKLYYFPFRARGEVIRMVLHAAGVPFDDERIPMDDWPKRKSEIPGGRMPVLQVIDPDKPDTPKNFVEGMAIARMLAKRFDLMDDTEEGYYNTERMIGECEDVFKEFRSVFLSPADKKEELLKEAMETSIPKQLDLISKSLSESAGKFVAGCKVTLGDLCLLACLDHVDKSDPEFLKDKYPKLLEWREEVLKEKPKLADYIKSRPDTPF	30.2	90.7	3e+06
rCsPGDS1 (Clonorchis sinensis) (protein) MSQYKLTYFNLRGRAEPIRMVLIISGTPFEDCRIEVSDWPSKKSTIPGGKLPILEVTSPCGKKTLMTESMATARYLAKQHNLMGATDEDYYKIEKTIGECGDLHDLVYKIARAPDAEKPKLIEELKKLENAPRLLNLMSETLKSNPSGFVAGEKVSLGDIALLCTLDQFESVYPGFLKENYPIFANHREHIMELQPKLAEHIKTRPTTIV	21.0	90.6	4.3e+06
rCsGST-μ1 (Clonorchis sinensis) (protein) MAPVLGYWKIRGLAQPIRLLLEYVGDSYEEHSYGRCDGEKWQNDKHNLGLELPNLPYYKDGNFSLTQSLAILRYIADKHNMIGNTPVERAKISMIEGGLVDLRAGVSRIAYQETFVCIVSTFCLSHTSQEQLKVPYLQQLPSTLRMWSQFLGNNSYLHGSTPTHLDFMFYEALDVIRYLDPTSVEAFPNLMQFIHRIEALPNIKAFMESDRFIKWPLNGWSAYFGGGDAPPK	4.9	12.5	2.6e+06
